Experimental data from patent US20130202618A1.

How the values were obtained:
[1] = biological target: C. difficile toxin A from strain Pitt 07 (ribotype 078) (Clostridium difficile strain Pitt 07); assay: cell-based or functional assay
[2] = biological target: C. difficile toxin B from strain CCL678 (ribotype 027, BI/NAP1/027) (Clostridium difficile strain CCL678); assay: cell-based or functional assay

Row | Substance | EC50, neutralization of supernatant cytotoxicity on T-84 cells [1] | EC50, neutralization of supernatant cytotoxicity on CHO-K1 cells [2]
1 | comparator human anti-toxin A monoclonal antibody CDA-1 | > 100 nM | 
2 | comparator human anti-toxin B monoclonal antibody CDB-1 |  | > 100 nM
